These results are taken from article PMC4873976, “Structural basis for haem piracy from host haemopexin by Haemophilus influenzae” (Nature Communications, 2016).

In this assay the target is T1, Haemopexin (Oryctolagus cuniculus, UniProt P20058).
T1 chain: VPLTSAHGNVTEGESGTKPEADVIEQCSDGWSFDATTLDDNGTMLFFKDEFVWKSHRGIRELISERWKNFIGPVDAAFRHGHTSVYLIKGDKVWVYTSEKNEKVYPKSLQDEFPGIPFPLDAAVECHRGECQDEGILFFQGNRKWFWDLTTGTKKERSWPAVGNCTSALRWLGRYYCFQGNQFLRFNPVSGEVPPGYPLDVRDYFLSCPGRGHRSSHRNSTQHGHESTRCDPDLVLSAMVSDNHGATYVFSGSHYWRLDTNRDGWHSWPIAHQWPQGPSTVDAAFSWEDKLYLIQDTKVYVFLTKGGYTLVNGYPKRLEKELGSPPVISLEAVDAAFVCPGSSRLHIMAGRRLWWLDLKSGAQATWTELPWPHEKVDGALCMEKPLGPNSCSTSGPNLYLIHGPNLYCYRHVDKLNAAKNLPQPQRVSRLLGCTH
Nature of the assay: ITC; given as Ka.

B1: HxuA (protein)
chain: STQGLPQQGLPQQGLPQEDKVVVGQATFDKTIADKMTINQTSDKVQINWHSFDIGQNKEVEFKQPSENSVAYNRVTGGNASQIQGKLTANGKVYLANPNGVIITKGAEINVAGLLATTKDLEQISENSNSYQFTRKTKDRQVVKEGQVINEGEIKAKDFVVLNGDEVINKGNINVEKNSTINGKVYLSSGYNFTFTLSDSGISVALEDNTVRGIVQNEGSIKAGEITLSAKGRKEALDSLVMNNGVLEATKVSNRNGKVVLSADNVQLNNESNIKGEIVNFGTEVTSNEDKKLKITSKTGSKVTSPKINFKGKSVNINGNFGRENSGTHYNEERKTLNTEVNIDVPGAENIRIADDKDNTETDSFIQTEALSSLLANNGKVNLKGNDVNISGNINIDSFRGTDSLLKLTNQGHINIDHADINSKGRLFVVTSLQNDVDFKSNITITDSKINLGNGAMGLGRSVNEDDYATRWKRAEKSQRKKFNVDMRNVVFNQVDEVILAGGFEKVNLDKIVATGQTNFYIDGGVSRNNSRYEYGVLDLDYRTQLSELEQGRRRWRYYRDLDLDMNKAYLYRFDLFAKNNSGRSTIKGTEINISNSNINLKNGFVHLLAENIKLDNSKVDITFDKDNSQDTLAQTNRLGMNGKVSMINSHIKIVGDEKEGISPTGTYATMFLIGELIGEKSSIFVKSHQGYTFKTDGDTKIAGKNSKEDLKITAINTGGRAAEEVLINGALGSADNDANIANMAFTIGDSANTKTTIENADITALAPNGGTAYLSSKDVEIEVKPNSNFTFFELPREKNLNQTKINGASTKLSERGFARLYDKINGVRASNLSAEQLNVTDASEKIINTKLVSSLDVEKLVSVAVCDAGNGCEEQQFGDKGNNTKVSVGELEAEQ
B1 gave a Kd of less than 1 nM.
